Data taken from US20240261333A1, “NOVEL TARGETS FOR ENHANCING ANTI-TUMOR IMMUNITY” (THE BROAD INSTITUTE, INC., priority 2021, published 2024).

Biological target: T1, B3GNT2 (Homo sapiens, UniProt Q9NY97)
T1 construct: The respective ORFs of candidate genes [CD274 (NM_014143), MCL1 (NM_021960), JUNB (NM_002229), and B3GNT2 (NM_006577)] were synthesized; expressed in transfected cells; host or cells: A375 melanoma cells (lentiviral ORF overexpression)
T1 sequence (Q9NY97 1-397): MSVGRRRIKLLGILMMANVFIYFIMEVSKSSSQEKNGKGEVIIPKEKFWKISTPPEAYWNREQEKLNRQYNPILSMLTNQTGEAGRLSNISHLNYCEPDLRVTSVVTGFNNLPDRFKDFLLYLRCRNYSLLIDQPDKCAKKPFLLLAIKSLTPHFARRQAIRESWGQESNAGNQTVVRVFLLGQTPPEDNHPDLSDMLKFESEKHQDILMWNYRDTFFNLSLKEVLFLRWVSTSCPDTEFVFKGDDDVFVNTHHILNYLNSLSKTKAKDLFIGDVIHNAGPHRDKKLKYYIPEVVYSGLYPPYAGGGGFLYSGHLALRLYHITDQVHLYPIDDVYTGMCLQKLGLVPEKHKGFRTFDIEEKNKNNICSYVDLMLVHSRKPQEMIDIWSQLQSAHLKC
Assay: Co-IP of FLAG-tagged B3GNT2 followed by mass spectrometry
Type: cell-based
Design: C-term IgG / C-term flag: unit not given here
Method: Cells were plated in 10-cm cell culture dishes and grown to 60-80% confluency. For each condition, two biological replicates were harvested for co-IP. Cells were washed with PBS and 4 mL of lysis buffer (20 mM HEPES, 1% Triton X-100, 150 mM NaCl, 1 mM EDTA, and 10% glycerol) containing protease inhibitor cocktail was added. Cells were scraped and lysate was incubated at 4° C. under rotary agitation for 1 h. Lysate was centrifuged at 14,000×g for 10 min at 4° C. Supernatant was transferred to a new tube and an aliquot was taken as the input. […] For Western blots, 10 μg/mL Chicken Anti-FLAG (Aves labs ET-DY100) and IgY control (R&D Systems AB-101-C) antibodies were biotinylated (Thermo Fisher Scientific 90407) and added to the respective conditions. Lysates with antibodies were incubated at 4° C. under rotary agitation overnight. For each mL of lysate, 50 μL of Pierce Protein A/G Magnetic Beads (Mass spectrometry; Thermo Fisher Scientific 88803) or Pierce Streptavidin Magnetic Beads (Western blot; Thermo Fisher Scientific 88817) was washed twice with lysis buffer. Lysates with antibodies were added to the beads and incubated at 4° C. under rotary agitation for 4 h. Beads were washed with lysis buffer 3 times and resuspended in lysis buffer for storage. […] This solution was subjected to solid phase extraction to concentrate the peptides and remove unwanted reagents followed by injection onto a Shimadzu HPLC with fraction collector. Eight fractions were collected and after concentration were injected on a Waters NanoAcquity HPLC equipped with a self-packed Aeris 3 μm C18 analytical column 0.075 mm by 20 cm, (Phenomenex). Peptides were eluted using standard reverse-phase gradients. The effluent from the column was analyzed using a Thermo Orbitrap Elite mass spectrometer (nanospray configuration) operated in a data dependent manner for 54 minutes. […] Scaffold Q+S (Proteome Software) was used to provide consensus reports for the identified proteins.

[1] = Co-IP followed by mass spectrometry of B3GNT2, C-term tag, FLAG pull-down
[2] = Co-IP followed by mass spectrometry of B3GNT2, C-term tag, IgG pull-down
[3] = Co-IP followed by mass spectrometry of B3GNT2, N-term tag, FLAG pull-down
[4] = Co-IP followed by mass spectrometry of B3GNT2, N-term tag, IgG pull-down
[5] = Co-IP with FLAG antibody, C-terminally FLAG-tagged B3GNT2, mass spectrometry count, unit not given
[6] = Co-IP with FLAG antibody, N-terminally FLAG-tagged B3GNT2, mass spectrometry count, unit not given
[7] = Co-IP with IgG control antibody, C-terminally FLAG-tagged B3GNT2, mass spectrometry count, unit not given
[8] = Co-IP with IgG control antibody, N-terminally FLAG-tagged B3GNT2, mass spectrometry count, unit not given

Substance | C-term flag [1] | C-term IgG [2] | N-term FLAG [3] | N-term IgG [4] | C-term flag [5] | N-term FLAG [6] | C-term IgG [7] | N-term IgG [8]
PKM | 3 | 2 | 3 | 2 | – | – | – | –
TOR1AIP2 | – | – | – | – | 2 | 0 | 0 | 0
HUWE1 | 0 | 0 | 3 | 0 | – | – | – | –
MYH11 | 7 | 5 | 2 | 3 | – | – | – | –
FABP5 | – | – | – | – | 8 | 6 | 0 | 2
TUBB4B | – | – | – | – | 119 | 161 | 13 | 0
PXN | – | – | – | – | 0 | 2 | 0 | 0
HDGFL2 | – | – | – | – | 2 | 0 | 0 | 0
PRKDC | – | – | – | – | 11 | 24 | 0 | 0
HSPA8 | 49 | 15 | 41 | 16 | – | – | – | –
PSMD4 | – | – | – | – | 0 | 2 | 0 | 0
PRBP1 | 9 | 6 | 6 | 7 | – | – | – | –
RAB1B | – | – | – | – | 2 | 0 | 0 | 0
LYZ | – | – | – | – | 6 | 3 | 0 | 4
LCN1 | 11 | 6 | 11 | 9 | – | – | – | –
TCP1 | 3 | 0 | 0 | 0 | – | – | – | –
SUMF2 | – | – | – | – | 3 | 0 | 0 | 0

Substance | C-term flag [1] | C-term IgG [2] | N-term FLAG [3] | N-term IgG [4] | C-term flag [5] | N-term FLAG [6] | C-term IgG [7] | N-term IgG [8]
PCBP1 | – | – | – | – | 4 | 4 | 3 | 0
HBB | 0 | 0 | 4 | 0 | – | – | – | –
GALNT2 | – | – | – | – | 2 | 0 | 0 | 0
VIM | 411 | 337 | 402 | 452 | – | – | – | –
AIFM1 | – | – | – | – | 5 | 5 | 0 | 0
MAP1B | – | – | – | – | 2 | 0 | 0 | 0
SYNM | 5 | 2 | 5 | 5 | – | – | – | –
EPRS | – | – | – | – | 4 | 3 | 0 | 0
MON2 | – | – | – | – | 3 | 0 | 0 | 0
ERP29 | – | – | – | – | 0 | 2 | 0 | 0
SQSTM1 | – | – | – | – | 43 | 3 | 3 | 0
HSPB1 | 4 | 0 | 3 | 4 | – | – | – | –
LAMB1 | – | – | – | – | 2 | 0 | 0 | 0
CEP170 | – | – | – | – | 2 | 0 | 0 | 0
GCN1 | – | – | – | – | 4 | 14 | 0 | 0
RPL28 | 16 | 3 | 8 | 3 | – | – | – | –
EMD | 2 | 2 | 2 | 0 | – | – | – | –
